The results in this text go back to PMC3292583, “Poplar GTL1 Is a Ca2+/Calmodulin-Binding Transcription Factor that Functions in Plant Water Use Efficiency and Drought Tolerance”.

Series [1] has as its target T1, PtaGTL1-C (C-terminal trihelix DNA-binding fragment) (Populus tremula x P. alba (clone …, UniProt G8G9Q9 528-779)).
T1 sequence: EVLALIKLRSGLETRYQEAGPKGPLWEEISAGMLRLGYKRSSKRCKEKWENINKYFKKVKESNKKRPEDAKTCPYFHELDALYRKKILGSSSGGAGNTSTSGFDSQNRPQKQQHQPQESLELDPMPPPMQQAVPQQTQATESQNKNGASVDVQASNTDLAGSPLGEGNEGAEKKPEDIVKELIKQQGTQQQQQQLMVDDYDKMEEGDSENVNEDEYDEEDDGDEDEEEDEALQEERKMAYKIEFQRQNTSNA
In words: EMSA; text: mutation inhibited the interaction; LightShift Chemiluminescent EMSA kit, per cited earlier method; 200 ng biotin probe, 1000 ng competitor; binding buffer, salt, pH and temperature not stated (probes annealed in 10 mM Tris-HCl, 1 mM EDTA, pH 8.0). The note with it: protein: recombinant; tags: N-terminal 6xHis (pDEST17); label: 3' biotin (probe); blunt.

For series [2], the target named is T1, PtaGTL1-C (C-terminal trihelix …). In words: EMSA; LightShift Chemiluminescent EMSA kit, per cited earlier method; 200 ng biotin probe, 1000 ng competitor; binding buffer, salt, pH and temperature not stated (probes annealed in 10 mM Tris-HCl, 1 mM EDTA, pH 8.0). The note with it: protein: recombinant; tags: N-terminal 6xHis (pDEST17); label: 3' biotin (probe); blunt.

B1: PtSDD1m (GT2 box GGTAAT to CCTAAT) (dsDNA)
DNA 1: TTCGTGAATATCCTAATGATTAT
DNA 2: ATAATCATTAGGATATTCACGAA
Consider B1, for which the binding result in series [1] is recorded as “no binding”.

B2: AtSDD1m (GT3 box GGTAAA to CCTAAA) (dsDNA)
DNA 1: TTCTTTGGCTTCCTAAAACTTCAATGGA
DNA 2: TCCATTGAAGTTTTAGGAAGCCAAAGAA
Take B2: the binding result in series [2] is “no binding”.

B3: AtSDD1 promoter fragment with GT3 box (dsDNA)
DNA 1: TTCTTTGGCTTGGTAAAACTTCAATGGA
DNA 2: TCCATTGAAGTTTTACCAAGCCAAAGAA
With B3, the binding result in series [2] was “binds”.
